Biological target: MK-3475-596 (MK-3475 derivatized with fluorescent dye Dylight-596) (Dylight-596 amine-reactive dye, reacts preferentially with the primary amine of lysine residues (sites not given))
Assay: FRET between Dylight-488 labelled Ab6 and Dylight-596 labelled MK-3475, recorded for 72 hours (ex 488 nm, em 620 nm)
Procedure: Dylight-488® or Dylight-596® are amine-reactive dyes, which react preferentially with the primary amine of lysine residues. […] Due to the sensitivity of the assay, the molar concentration of the fluorogenic tagged proteins is either 3.2 uM or 800 nM depending on the protein ratio. FRET fluorescence signals are recorded for 72 hours at λₑₘ=620 nm (λₑₓ=488 nm) (FIG. 49).
If protein interaction occurs, we expect to see a growth of the fluorescence signal as a function of time (FIG. 49). The interaction is evaluated by the rate of growth of the fluorescence and the maximum of the fluorescence signal. The absence of interaction (or a reduced interaction) is characterized by i) a low rate of the growth of the fluorescence signal, and ii) a low plateau maximal. […] The fluorescence baseline is measured in the absence of labeled protein.

Chain of MK-3475-596 (MK-3475 derivatized with fluorescent dye Dylight-596) (Dylight-596 amine-reactive dye, reacts preferentially with the primary amine of lysine residues (sites not given)) (VH, as listed by the source, chain 1 of 2): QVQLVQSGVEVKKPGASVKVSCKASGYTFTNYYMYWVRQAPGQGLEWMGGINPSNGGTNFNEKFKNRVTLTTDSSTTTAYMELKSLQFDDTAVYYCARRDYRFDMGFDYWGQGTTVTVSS
Chain of MK-3475-596 (MK-3475 derivatized with fluorescent dye Dylight-596) (Dylight-596 amine-reactive dye, reacts preferentially with the primary amine of lysine residues (sites not given)) (VL, as listed by the source, chain 2 of 2): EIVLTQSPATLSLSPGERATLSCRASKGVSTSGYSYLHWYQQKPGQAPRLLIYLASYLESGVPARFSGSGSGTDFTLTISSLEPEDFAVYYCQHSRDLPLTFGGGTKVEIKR

binding result: no binding
B1: Ab6-488 (Ab6 derivatized with fluorescent dye Dylight-488) (antibody, human IgG4 S228P, kappa, V domains shown)
VH: QMQLVQSGPEVKKPGTSVKVSCKASGYTFTDYNVDWVRQARGQRLEWIGDINPNDGGTIYAQKFQERVTITVDKSTSTAYMELSSLRSEDTAVYYCARNYRWFGAMDHWGQGTTVTVSS
VL: DIVMTQTPLSLSVTPGQPASISCKASQSLDYEGDSDMNWYLQKPGQPPQLLIYGASNLESGVPDRFSGSGSGTDFTLKISRVEAEDVGVYYCQQSTEDPRTFGGGTKVEIKR
modifications: Dylight-488 amine-reactive dye, reacts preferentially with the primary amine of lysine residues (sites not given)

— patent US20220002410A1 (Merck Sharp & Dohme, published 2022)
